Data: patent US20220041738A1 (SAITAMA MEDICAL UNIVERSITY, published 2022)

Tests used:
Experiment in all cases: immunofluorescence on transfected, formalin-fixed C2C12 cells, IgG at 10 µg/mL, Alexa 594 anti-rat IgG
[1] = target: T1, human ALK2-Q207E on cells (human, UniProt Q04771 21-509)
T1 sequence: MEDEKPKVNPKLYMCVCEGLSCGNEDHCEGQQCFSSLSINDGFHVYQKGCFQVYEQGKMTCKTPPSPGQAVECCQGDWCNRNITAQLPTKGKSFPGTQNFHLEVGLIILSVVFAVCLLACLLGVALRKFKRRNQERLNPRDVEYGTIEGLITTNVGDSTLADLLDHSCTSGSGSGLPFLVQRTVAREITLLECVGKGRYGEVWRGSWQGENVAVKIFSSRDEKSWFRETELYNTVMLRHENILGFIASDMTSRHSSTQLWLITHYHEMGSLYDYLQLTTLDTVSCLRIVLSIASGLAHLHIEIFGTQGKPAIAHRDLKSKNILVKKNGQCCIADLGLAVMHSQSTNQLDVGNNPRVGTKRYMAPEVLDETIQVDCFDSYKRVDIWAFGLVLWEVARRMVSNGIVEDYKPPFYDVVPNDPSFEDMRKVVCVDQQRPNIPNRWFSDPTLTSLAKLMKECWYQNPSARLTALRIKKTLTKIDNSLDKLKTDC
Procedure: (§1) Mouse C2C12 cells were seeded into a 96-well plate (Greiner Bio-One) at 0.5×10³ cells/well, and cultured in 15% FBS-containing DMEM medium overnight under the conditions of 5% CO₂ at 37° C. On the following day, the C2C12 cells were transfected with each of a wild-type human ALK2 cDNA integrated into pcDEF3; pcDEF3/human ALK2-L196P, pcDEF3/human ALK2-P197_F198delinsL, pcDEF3/human ALK2-R202I, pcDEF3/human ALK2-R206H, pcDEF3/human ALK2-Q207E, pcDEF3/human ALK2-R258S, pcDEF3/human ALK2-G325A, pcDEF3/human ALK2-G328E, pcDEF3/human ALK2-G328R, pcDEF3/human ALK2-G328W, pcDEF3/human ALK2-G356D, and pcDEF3/human ALK2-R375P, which are variants identified in FOP; and pcDEF3 as a control, using Lipofectamine 2000 (Invitrogen), and further cultured overnight.
(§2) The C2C12 cells were fixed with 10% neutral formalin (Nacalai Tesque, Japan) for 20 minutes at room temperature, and then blocked with 10% goat normal serum for 30 minutes. After the blocking agent was removed, purified IgG diluted to 10 μg/mL with the blocking agent was added, and the cells were left for 1 hour at room temperature. After the cells were washed with PBS three times, Goat Alexa 594-conjugated anti-rat IgG (Invitrogen) diluted to 1:1000 with the blocking agent was added, and the cells were left for 1 hour at room temperature. After the cells were washed with PBS three times, the cells were fixed with 10% neutral formalin for 15 minutes at room temperature, and nuclear-stained with DAPI (LifeTechnologies). Fluorescent signals were analyzed with a fluorescence microscope BZ-9000 (Keyence).

[2] = target: T2, human ALK2-R258S on cells (human, UniProt Q04771 21-509)
T2 sequence: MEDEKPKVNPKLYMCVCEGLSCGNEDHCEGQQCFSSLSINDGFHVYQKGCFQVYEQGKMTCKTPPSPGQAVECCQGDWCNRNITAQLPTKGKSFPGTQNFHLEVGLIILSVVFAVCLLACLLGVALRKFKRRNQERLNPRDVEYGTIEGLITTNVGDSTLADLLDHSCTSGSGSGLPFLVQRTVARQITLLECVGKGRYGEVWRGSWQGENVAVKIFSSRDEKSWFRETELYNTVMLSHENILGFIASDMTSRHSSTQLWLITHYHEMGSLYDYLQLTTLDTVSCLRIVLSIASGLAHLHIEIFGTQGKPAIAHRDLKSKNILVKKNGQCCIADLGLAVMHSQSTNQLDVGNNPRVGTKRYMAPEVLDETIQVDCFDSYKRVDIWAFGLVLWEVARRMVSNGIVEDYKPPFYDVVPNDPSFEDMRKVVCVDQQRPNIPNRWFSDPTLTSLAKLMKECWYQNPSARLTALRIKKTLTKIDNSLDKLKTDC
Procedure: as §1, §2

[3] = target: T3, human ALK2-G328R on cells (human, UniProt Q04771 21-509)
T3 sequence: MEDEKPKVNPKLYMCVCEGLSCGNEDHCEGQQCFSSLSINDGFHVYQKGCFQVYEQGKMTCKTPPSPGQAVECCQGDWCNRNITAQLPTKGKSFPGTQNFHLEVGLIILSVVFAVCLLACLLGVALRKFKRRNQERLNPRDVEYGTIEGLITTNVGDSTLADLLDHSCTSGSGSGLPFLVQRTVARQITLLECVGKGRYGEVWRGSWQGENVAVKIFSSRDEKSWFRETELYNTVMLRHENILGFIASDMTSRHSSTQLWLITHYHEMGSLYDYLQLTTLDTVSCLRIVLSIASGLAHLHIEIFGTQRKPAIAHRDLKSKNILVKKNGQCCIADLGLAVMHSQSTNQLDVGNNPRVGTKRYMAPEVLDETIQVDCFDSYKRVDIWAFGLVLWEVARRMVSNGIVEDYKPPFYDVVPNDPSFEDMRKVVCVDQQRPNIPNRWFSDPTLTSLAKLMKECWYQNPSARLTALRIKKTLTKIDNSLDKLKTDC
Procedure: as §1, §2

[4] = target: T4, human ALK2-G356D on cells (human, UniProt Q04771 21-509)
T4 sequence: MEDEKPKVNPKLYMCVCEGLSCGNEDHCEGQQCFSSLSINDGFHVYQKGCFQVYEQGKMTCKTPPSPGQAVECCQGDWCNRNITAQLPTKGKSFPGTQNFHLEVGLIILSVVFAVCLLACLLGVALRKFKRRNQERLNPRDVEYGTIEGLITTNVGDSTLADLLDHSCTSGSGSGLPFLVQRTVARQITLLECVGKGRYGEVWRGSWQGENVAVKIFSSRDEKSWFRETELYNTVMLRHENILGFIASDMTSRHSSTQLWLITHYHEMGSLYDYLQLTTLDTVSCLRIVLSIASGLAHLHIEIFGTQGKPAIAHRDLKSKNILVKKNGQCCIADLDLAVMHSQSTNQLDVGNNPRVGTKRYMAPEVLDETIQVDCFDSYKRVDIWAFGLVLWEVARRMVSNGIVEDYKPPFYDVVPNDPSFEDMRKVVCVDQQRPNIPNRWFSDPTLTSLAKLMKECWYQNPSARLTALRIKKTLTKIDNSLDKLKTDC
Procedure: as §1, §2

Measured: binding result

B1: rat anti-ALK2 monoclonal antibody A2-25C (antibody, V domains shown)
VH: EVQLVESGGGLVQPGGSLKLSCAASGFTFSYYAMSWVCQAPTKGLEWVASISRGGDNTYYRDTVKGRFTTSRDNAKNTLYLQMDSLRSEDTATYYCARLNYNNYFDYWGQGVMVTVSS
VL: DIQMTQSPASLSASLEEIVTITCQASQDIGNWLSWYQQKPGKSPQLLIYGATSLADGVPSRFSGSRSGTQYSLKISRLRVEDIGIYYCLQAYSAPFTFGSGTKLEIKR
notes: Rat monoclonal IgG from a hybridoma; also called 25C11
binds: all assays above

B2: rat anti-ALK2 monoclonal antibody A2-27D (antibody, V domains shown)
VH: EVQLVESGGGLVQPGRSLKLSCLASGSTFSNYGMKWIRQAPGKGLEWVASISRSSTYIYYADTVKGRFTISRDNARNTLYLQMTSLRSEDTALYYCAAAISTPFYWYFDFWGPGTVVTVSS
VL: EIVLTQSPTTMAASPGEKVTLNCLASSSVSYMTWYQQKSGASPKLWIYGTSNLASGVPNRFSGSGSGTSYSLAISSMEAEDVATYYCLHLTSYPPYTFGAGTKLELKR
notes: Rat monoclonal IgG from a hybridoma; also called 27D11
binds: all assays above
